According to paper PMC11952106:

Experiments:
[1] = biological target: act-EaCDCL^S (proteolytically activated short CDC-like protein of Elizabethkingia anophelis) (Elizabethkingia anophelis); test: cryo-EM structure; prepore-like oligomer stacked on the inserted pore; act-EaCDCL^L (3.95 uM) then act-EaCDCL^S (7.9 uM) on POPC liposomes at 37°C; focused refinement, C30 symmetry, 3.13 Å
[2] = biological target: act-EaCDCL^S (proteolytically activated short CDC-like protein of Elizabethkingia anophelis) (Elizabethkingia anophelis); test: cryo-EM structure; membrane-inserted pore on POPC liposomes; act-EaCDCL^L (3.95 uM) then act-EaCDCL^S (7.9 uM) at 37°C; focused refinement, C30 symmetry, 2.87 Å

**Q.** How did the stoichiometry N [1] turn out when “act-EaCDCL^S (proteolytically activated short CDC-like protein of Elizabethkingia anophelis) (domain or fragment)” was run?
**A.** Its stoichiometry N is 30 subunits.

**Q.** And the stoichiometry N [2]?
**A.** The stoichiometry N was 30 subunits.
